This assay deals with Concanavalin A (UniProt P02866). The assay can be described thus: ConA sepharose affinity chromatography, load and eluate by RP-HPLC.

As for “recombinant transferrin (S32A, S415A, T613A) (from UniProt P02787 20-698) (ligand)”, the Analysis 1 Eluate Recovery % (w/w) (ConA binding material) is 0.15 % (w/w). On to “recombinant transferrin (S32C, S415A, T613A) (from UniProt P02787 20-698) (ligand)”, for which the Analysis 1 Eluate Recovery % (w/w) (ConA binding material) was 0.25 % (w/w) and the Analysis 2 Eluate Recovery % (w/w) (ConA binding material) was 0.26 % (w/w).

Source of the values: patent US20140031294A1.
